# In US20150259666:
# B1: full length t-PA (native human tissue plasminogen activator) (protein)
# chain: SYQVICRDEKTQMIYQQHQSWLRPVLRSNRVEYCWCNSGRAQCHSVPVKSCSEPRCFNGGTCQQALYFSDFVCQCPEGFAGKCCEIDTRATCYEDQGISYRGTWSTAESGAECTNWNSSALAQKPYSGRRPDAIRLGLGNHNYCRNPDRDSKPWCYVFKAGKYSSEFCSTPACSEGNSDCYFGNGSAYRGTHSLTESGASCLPWNSMILIGKVYTAQNPSAQALGLGKHNYCRNPDGDAKPWCHVLKNRRLTWEYCDVPSCSTCGLRQYSQPQFRIKGGLFADIASHPWQAAIFAKHRRSPGERFLCGGILISSCWILSAAHCFQERFPPHHLTVILGRTYRVVPGEEEQKFEVEKYIVHKEFDDDTYDNDIALLQLKSDSSRCAQESSVVRTVCLPPADLQLPDWTECELSGYGKHEALSPFYSERLKEAHVRLYPSSRCTSQHLLNRTVTDNMLCAGDTRSGGPQANLHDACQGDSGGPLVCLNDGRMTLVGIISWGLGCGQKDVPGVYTKVTNYLDWIRDNMRP
# Target: Human PAI-1 (plasminogen activator inhibitor-1), P05121
# Sequence (P05121 whole entry, looked up): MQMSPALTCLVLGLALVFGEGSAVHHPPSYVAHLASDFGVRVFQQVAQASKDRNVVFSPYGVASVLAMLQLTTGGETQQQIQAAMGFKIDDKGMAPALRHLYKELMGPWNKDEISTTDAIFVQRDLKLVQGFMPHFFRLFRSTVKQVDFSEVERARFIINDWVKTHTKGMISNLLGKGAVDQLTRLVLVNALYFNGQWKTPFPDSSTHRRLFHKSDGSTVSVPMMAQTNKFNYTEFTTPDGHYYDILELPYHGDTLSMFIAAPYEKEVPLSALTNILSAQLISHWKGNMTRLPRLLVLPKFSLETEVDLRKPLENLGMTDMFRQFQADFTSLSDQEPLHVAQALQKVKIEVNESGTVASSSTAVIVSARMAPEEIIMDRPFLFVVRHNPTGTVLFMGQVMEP
protein,measurement,value
B1,residual enzyme activity after 1 hour incubation with PAI-1 (PAI-1 resistance),Full length t-PA preserve the enzyme activity up to 54%
